Source: patent US20210388087A1 (Chugai, published 2021)
Substitutions are numbered along the chain they refer to.

B1: CE115HA000 H35A (antibody, human IgG1, kappa, L234A L235A, N297A, name in Kabat numbering)
heavy: QVQLVESGGGVVQPGRSLRLSCAASGFTFSNAWMAWVRQAPGKGLEWVAQIKAKSNNYATYYAESVKGRFTISRDDSKNSLYLQMNSLKTEDTAVYYCRYVHYGAYYGVDAWGQGTTVTVSSASTKGPSVFPLAPSSKSTSGGTAALGCLVKDYFPEPVTVSWNSGALTSGVHTFPAVLQSSGLYSLSSVVTVPSSSLGTQTYICNVNHKPSNTKVDKKVEPKSCDKTHTCPPCPAPEAAGGPSVFLFPPKPKDTLMISRTPEVTCVVVDVSHEDPEVKFNWYVDGVEVHNAKTKPREEQYASTYRVVSVLTVLHQDWLNGKEYKCKVSNKALPAPIEKTISKAKGQPREPQVYTLPPSRCELTKNQVSLSCAVKGFYPSDIAVEWESNGQPENNYKTTPPVLDSDGSFFLVSKLTVDKSRWQQGNVFSCSVMHEALHNHYTQKSLSLSPDYKDDDDK
chain: EPKSSDKTHTCPPCPAPELLGGPSVFLFPPKPKDTLMISRTPEVTCVVVDVSHEDPEVKFNWYVDGVEVHNAKTKPREEQYNSTYRVVSVLTVLHQDWLNGKEYKCKVSNKALPAPIEKTISKAKGQPREPQVCTLPPSRDELTKNQVSLWCLVKGFYPSDIAVEWESNGQPENNYKTTPPVLDSDGSFFLYSKLTVDKSRWQQGNVFSCSVMHEALHNRYTQKSLSLSP
light: DIVMTQSPLSLPVTPGEPASISCRSSQSLVHSNRNTYLHWYQQKPGQAPRLLIYKVSNRFSGVPDRFSGSGSGTDFTLKISRVEAEDVGVYYCGQGTQVPYTFGQGTKLEIKRTVAAPSVFIFPPSDEQLKSGTASVVCLLNNFYPREAKVQWKVDNALQSGNSQESVTEQDSKDSTYSLSSTLTLSKADYEKHKVYACEVTHQGLSSPVTKSFNRGEC
notes: one-arm antibody
B2: CE115HA000 A99S (antibody, human IgG1, kappa, L234A L235A, N297A, name in Kabat numbering)
heavy: B1 heavy with A35H, A105S
chain: B1 chain
light: B1 light
notes: one-arm antibody
B3: CE115HA000 A99K (antibody, human IgG1, kappa, L234A L235A, N297A, name in Kabat numbering)
heavy: B1 heavy with A35H, A105K
chain: B1 chain
light: B1 light
notes: one-arm antibody
B4: CE115HA000 A60E (antibody, human IgG1, kappa, L234A L235A, N297A, name in Kabat numbering)
heavy: B1 heavy with A35H, A63E
chain: B1 chain
light: B1 light
notes: one-arm antibody
B5: CE115HA000 A56G (antibody, human IgG1, kappa, L234A L235A, N297A, name in Kabat numbering)
heavy: B1 heavy with A35H, A59G
chain: B1 chain
light: B1 light
notes: one-arm antibody
B6: CE115HA000 A56Y (antibody, human IgG1, kappa, L234A L235A, N297A, name in Kabat numbering)
heavy: B1 heavy with A35H, A59Y
chain: B1 chain
light: B1 light
notes: one-arm antibody
B7: CE115HA000 A56Q (antibody, human IgG1, kappa, L234A L235A, N297A, name in Kabat numbering)
heavy: B1 heavy with A35H, A59Q
chain: B1 chain
light: B1 light
notes: one-arm antibody
B8: CE115HA000 A52aE (antibody, human IgG1, kappa, L234A L235A, N297A, name in Kabat numbering)
heavy: B1 heavy with A35H, A53E
chain: B1 chain
light: B1 light
notes: one-arm antibody
B9: CE115HA000 A52aD (antibody, human IgG1, kappa, L234A L235A, N297A, name in Kabat numbering)
heavy: B1 heavy with A35H, A53D
chain: B1 chain
light: B1 light
notes: one-arm antibody
B10: CE115HA000 A99D (antibody, human IgG1, kappa, L234A L235A, N297A, name in Kabat numbering)
heavy: B1 heavy with A35H, A105D
chain: B1 chain
light: B1 light
notes: one-arm antibody
B11: CE115HA000 A60D (antibody, human IgG1, kappa, L234A L235A, N297A, name in Kabat numbering)
heavy: B1 heavy with A35H, A63D
chain: B1 chain
light: B1 light
notes: one-arm antibody
B12: CE115HA000 A99L (antibody, human IgG1, kappa, L234A L235A, N297A, name in Kabat numbering)
heavy: B1 heavy with A35H, A105L
chain: B1 chain
light: B1 light
notes: one-arm antibody
B13: CE115HA000 A56L (antibody, human IgG1, kappa, L234A L235A, N297A, name in Kabat numbering)
heavy: B1 heavy with A35H, A59L
chain: B1 chain
light: B1 light
notes: one-arm antibody
B14: CE115HA000 A56K (antibody, human IgG1, kappa, L234A L235A, N297A, name in Kabat numbering)
heavy: B1 heavy with A35H, A59K
chain: B1 chain
light: B1 light
notes: one-arm antibody
B15: CE115HA000 A56D (antibody, human IgG1, kappa, L234A L235A, N297A, name in Kabat numbering)
heavy: B1 heavy with A35H, A59D
chain: B1 chain
light: B1 light
notes: one-arm antibody
B16: CE115HA000 A56N (antibody, human IgG1, kappa, L234A L235A, N297A, name in Kabat numbering)
heavy: B1 heavy with A35H, A59N
chain: B1 chain
light: B1 light
notes: one-arm antibody
B17: CE115HA000 A32Y (antibody, human IgG1, kappa, L234A L235A, N297A, name in Kabat numbering)
heavy: B1 heavy with A32Y, A35H
chain: B1 chain
light: B1 light
notes: one-arm antibody
B18: CE115HA000 A52aY (antibody, human IgG1, kappa, L234A L235A, N297A, name in Kabat numbering)
heavy: B1 heavy with A35H, A53Y
chain: B1 chain
light: B1 light
notes: one-arm antibody
B19: CE115HA000 A52aV (antibody, human IgG1, kappa, L234A L235A, N297A, name in Kabat numbering)
heavy: B1 heavy with A35H, A53V
chain: B1 chain
light: B1 light
notes: one-arm antibody
B20: CE115HA000 A52aP (antibody, human IgG1, kappa, L234A L235A, N297A, name in Kabat numbering)
heavy: B1 heavy with A35H, A53P
chain: B1 chain
light: B1 light
notes: one-arm antibody
B21: CE115HA000 A52aS (antibody, human IgG1, kappa, L234A L235A, N297A, name in Kabat numbering)
heavy: B1 heavy with A35H, A53S
chain: B1 chain
light: B1 light
notes: one-arm antibody
B22: CE115HA000 A99Q (antibody, human IgG1, kappa, L234A L235A, N297A, name in Kabat numbering)
heavy: B1 heavy with A35H, A105Q
chain: B1 chain
light: B1 light
notes: one-arm antibody
B23: CE115HA000 A99F (antibody, human IgG1, kappa, L234A L235A, N297A, name in Kabat numbering)
heavy: B1 heavy with A35H, A105F
chain: B1 chain
light: B1 light
notes: one-arm antibody
B24: CE115HA000 A52aG (antibody, human IgG1, kappa, L234A L235A, N297A, name in Kabat numbering)
heavy: B1 heavy with A35H, A53G
chain: B1 chain
light: B1 light
notes: one-arm antibody
B25: CE115HA000 Y100aD one-arm antibody (antibody, human IgG1, kappa, L234A L235A, N297A, name in Kabat numbering)
heavy: B1 heavy with A35H, Y107D
chain: B1 chain
light: B1 light
B26: CE115HA000 Y100aF one-arm antibody (antibody, human IgG1, kappa, L234A L235A, N297A, name in Kabat numbering)
heavy: B1 heavy with A35H, Y107F
chain: B1 chain
light: B1 light
B27: CE115HA000 Y100aK one-arm antibody (antibody, human IgG1, kappa, L234A L235A, N297A, name in Kabat numbering)
heavy: B1 heavy with A35H, Y107K
chain: B1 chain
light: B1 light
B28: CE115HA000 Y100aL one-arm antibody (antibody, human IgG1, kappa, L234A L235A, N297A, name in Kabat numbering)
heavy: B1 heavy with A35H, Y107L
chain: B1 chain
light: B1 light
B29: CE115HA000 Y100aQ one-arm antibody (antibody, human IgG1, kappa, L234A L235A, N297A, name in Kabat numbering)
heavy: B1 heavy with A35H, Y107Q
chain: B1 chain
light: B1 light
B30: CE115HA000 Y100aS one-arm antibody (antibody, human IgG1, kappa, L234A L235A, N297A, name in Kabat numbering)
heavy: B1 heavy with A35H, Y107S
chain: B1 chain
light: B1 light
B31: CE115HA000 Y100aG one-arm antibody (antibody, human IgG1, kappa, L234A L235A, N297A, name in Kabat numbering)
heavy: B1 heavy with A35H, Y107G
chain: B1 chain
light: B1 light

Biological target: T1, CD3 epsilon homodimer protein (UniProt P07766 23-126)
T1 construct: also called CD3 (CD3 epsilon)
Test: SPR, CD3 epsilon homodimer on chip, one-arm antibody as analyte;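 note: surface plasmon resonance at 25 °C with CD3 epsilon homodimer amine-coupled to a CM4 sensor chip, antibody injected as analyte, HBS-EP+ as running buffer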
T1 sequence (P07766 23-126): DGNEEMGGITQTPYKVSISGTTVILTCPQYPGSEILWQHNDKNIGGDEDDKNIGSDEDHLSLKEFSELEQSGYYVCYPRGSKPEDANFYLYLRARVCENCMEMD

Row | Binder | KD ratio (KD of CE115HA000/KD of altered form)
1 | B1 | 25
2 | B2 | 0.76
3 | B3 | 1.4
4 | B4 | 0.88
5 | B5 | 0.59
6 | B6 | 0.63
7 | B7 | 0.74
8 | B8 | 0.89
9 | B9 | 1.35
10 | B10 | 1.03
11 | B11 | 0.94
12 | B12 | 1
13 | B13 | 0.77
14 | B14 | 1.32
15 | B15 | 0.71
16 | B16 | 0.84
17 | B17 | 2.11
18 | B18 | 7.71
19 | B19 | 0.95
20 | B20 | 5
21 | B21 | 0.82
22 | B22 | 0.85
23 | B23 | 1.15
24 | B24 | 0.61

Biological target: T2, CD3 epsilon homodimer protein (UniProt P07766 23-126)
T2 construct: immobilized on Sensor chip CM4 by amine coupling; also called CD3 (CD3 epsilon)
Test: SPR (Biacore T200), CD3 epsilon homodimer on CM4 chip, one-arm antibody as analyte, 25 C;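 note: homodimer attached to the sensor surface via amine coupling, HBS-EP+ used as running buffer during binding runs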
T2 sequence (P07766 23-126): as above

Row | Binder | ratio of amounts bound (altered form / CE115HA000)
25 | B25 | 0.31
26 | B26 | 0.87
27 | B27 | 0.9
28 | B28 | 0.48
29 | B29 | 0.56
30 | B30 | 0.64
31 | B31 | 1.23
